Experimental findings from patent US20160075790A1 (Bristol-Myers Squibb, published 2016) are described below.

Several values for one entry are separate records, joined by “and”; a condition that tells them apart may be missing. Identical values can stand only once.

Experiment [1] addresses T1, human CD40L, membrane-bound on cells (human, UniProt P29965 1-261).
T1 sequence: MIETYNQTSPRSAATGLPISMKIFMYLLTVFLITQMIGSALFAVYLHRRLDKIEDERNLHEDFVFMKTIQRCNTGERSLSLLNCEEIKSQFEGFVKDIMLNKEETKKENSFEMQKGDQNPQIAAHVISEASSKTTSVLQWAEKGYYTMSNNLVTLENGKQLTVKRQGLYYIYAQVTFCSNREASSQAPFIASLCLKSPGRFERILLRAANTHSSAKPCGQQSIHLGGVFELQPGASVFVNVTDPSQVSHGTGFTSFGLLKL
The experiment in a line: cell-based or functional assay.

The target of experiment [2] is T2, human isoleucine zipper-CD40L (IZ-hCD40L) (human, UniProt P29965 113-261).
T2 sequence: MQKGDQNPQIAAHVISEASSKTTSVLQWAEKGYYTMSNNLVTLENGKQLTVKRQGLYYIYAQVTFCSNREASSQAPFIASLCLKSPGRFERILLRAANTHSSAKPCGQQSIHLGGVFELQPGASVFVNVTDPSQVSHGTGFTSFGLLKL
Briefly: cell-based or functional assay.

B1: BMS2h-116-1312 (other)
VL: DIQMTQSPSSLSASVGDRVTITCRASQPIGPDLLWYQQKPGKAPKLLIYQTSILRSGVPSRFSGSGSETDFTLTISNLQPEDLATYYCQQYWAFPVTFGKGTKVVIKR
Regarding B1, in experiment [1], the “CHO-hCD40L-driven DC Activation IL-12 EC50” value was 0.112 µM, the “CHO-hCD40L-driven Human B Cell Proliferation EC50” value is 0.53 µM and the “T-B cell MLR EC50” value was determined as 0.234 µM. Moreover, the “hIZCD40L-driven Human B Cell Proliferation EC50” value in experiment [2] stood at 0.023 µM.

B2: BMS2h-116-1313 (other)
VL: DIQMTQSPSSLSASVGDRVTITCRASQPIGPDLLWYQQKPGKAPKLLIYQTSILRSGVPSRFSGSGSETDFTLTISNLQPEDFATYYCQQYWAFPVTFGRGTKVVIKR
With B2, the “T-B cell MLR EC50” value in experiment [1] is 0.258 µM.

B3: BMS2h-766 (other)
VH: EVQLLESGGGLVQPGGSLRLSCAASGFTFGDYGMSWVRQAPGKGLEWVSYIDPLGRLTYYADSVKGRFTISRDNSKNTLYLQMNSLRAEDTAVYYCAEDLSSLQYGVSPNFDYWGQGTLVTVSS
In the case of B3, the “hIZCD40L-driven Human B Cell Proliferation EC50” value in experiment [2] was > 7 µM.

B4: BMS2h-783 (other)
VH: EVQLLESGGGLVQPGGSLRLSCAASGFTFRDYDMGWVRQAPGKGLEWVSTISPLGHFTYYADSVKGRFTISRDNSKNTLYLQMNSLRAEDTAVYYCAKSGFHEYTEGFDYWGQGTLVTVSS
Regarding B4, the “hIZCD40L-driven Human B Cell Proliferation EC50” value in experiment [2] is > 2 µM.

B5: BMS2h-785 (other)
VL: DIQMTQSPSSLSASVGDRVTITCRASQPIYGWLNWYQQKPGKAPKLLIYLTSGLQSGVPSRFSGSGSGTDFTLTISSLQPEDFATYYCQQIHSSPFTFGQGTKVEIKR
As for B5, in experiment [2], the “hIZCD40L-driven Human B Cell Proliferation EC50” value is 3.7 µM and > 7 µM.

B6: BMS2h-572-632 (other)
VH: EVQLLESGGGLVQPGGSLRLSCAASGFTFKWQLMGWVRQAPGKGLEWVSGIEGPGDVTYYADSVKGRFTISRDNSKNTLYLQMNSLRAEDTAVYYCVKVGKDSKSDYRGQGTLVTVSS
Turning to B6, the “CHO-hCD40L-driven DC Activation IL-12 EC50” value in experiment [1] came out at 0.241 µM. Moreover, in experiment [2], the “hIZCD40L-driven Human B Cell Proliferation EC50” value amounted to 0.117 µM.

B7: BMS2h-572-634 (other)
VH: EVQLLESGGGLVQPGGSLRLSCAASGFTFNWELMGWARQAPGKGLEWVSGIEGPGDVTYYADSVKGRFTISRDNSKNTLYLQMNSLRAEDTAVYYCVKVGKDSRSDYRGQGTLVTVSS
Regarding B7, in experiment [1], the “CHO-hCD40L-driven DC Activation IL-12 EC50” value was 0.077 µM. In addition, the “hIZCD40L-driven Human B Cell Proliferation EC50” value in experiment [2] was found to be 0.031 µM.

B8: BMS2h-572 (other)
VH: EVQLLESGGGLVQPGGSLRLSCAASGFTFNWQLMGWVRQAPGKGLEWVSGIEGPGDVTYYADSVKGRFTISRDNSKNTLYLQMNSLRAEDTAVYYCAKVGKESNFDYRGQGTLVTVSS
For B8, the “hIZCD40L-driven Human B Cell Proliferation EC50” value in experiment [2] is > 7 µM.

B9: BMS2h-572-6 (other)
VH: EVQLLESGGGLVQPGGSLRLSCAASGFTFNWQLMGWVRQAPGKGLEWVSGIEGPGDVTYYADSVKGRFTISRDNSKNTLYLQMNSLRAEDTAVYYCVKVGKESNSDYRGQGTLVTVSS
With B9, in experiment [1], the “CHO-hCD40L-driven Human B Cell Proliferation EC50” value was > 7 µM and the “T-B cell MLR EC50” value was > 7 µM. Besides, the “hIZCD40L-driven Human B Cell Proliferation EC50” value in experiment [2] stood at 0.208 µM.

B10: BMS2h-437 (other)
VL: DIQMTQSPSSLSASVGDRVTITCRASTPIGTMLDWYQQKPGKAPKLLIGHSSWLQSGVPSRFSGSGSGTDFTLTISSLQPEDFATYYCGQHVRPPATFGQGTKVEIKR
Take B10: in experiment [2], the “hIZCD40L-driven Human B Cell Proliferation EC50” value came out at 5.7 µM.

B11: BMS2h-784 (other)
VH: EVQLLESGGGLVQPGGSLRLSCAASGFTFDRAGMGWVRQAPGKGLEWVSLIGRGGDITYYADSVKGRFTISRDNSKNTLYLQMNSLRAEDTAVYYCAKIRNLHWDVGRQFDYWGQGTLVTVSS
In the case of B11, the “hIZCD40L-driven Human B Cell Proliferation EC50” value in experiment [2] is > 4.7 µM.

B12: BMS2h-780 (other)
VH: EVQLLESGGGLVQPGGSLRLSCAASGFTFGSYTMMWVRQAPGKGLEWVSEIDRTGERTYYADSVKGRFTISRDNSKNTLYLQMNSLRAEDTAVYYCAEPGFASLPFDYWGQGTLVTVSS
As to B12, in experiment [2], the “hIZCD40L-driven Human B Cell Proliferation EC50” value is > 7 µM.

B13: BMS2h-782 (other)
VH: EVQLLESGGGLVQPGGSLRLSCAASGFTFDDAEMFWVRQAPGKGLEWVSSIDARGLTTYYADPVKGRFTISRDNSKNTLYLQMNSLRAEDTAVYYCAEATSAMYPFDYWGQGTLVTVSS
Turning to B13, the “hIZCD40L-driven Human B Cell Proliferation EC50” value in experiment [2] was > 7 µM.

B14: BMS2h-765 (other)
VH: EVQLLESGGGLVQPGGSLRLSCAASGFTFSAYTMEWVRQAPGKGLEWVSSIGVTGYDTYYADSVKGRFTISRDNSKNTLYLQMNSLRAEDTAVYYCAKGGQGFDYWGQGTLVTVSS
As to B14, the “hIZCD40L-driven Human B Cell Proliferation EC50” value in experiment [2] was > 7 µM.

B15: BMS2h-781 (other)
VH: EVQLLESGGGLVQPGGSLRLSCAASGFTFTDYTMYWVRQAPGKGLEWVSKISPSGRSTYYADSVKGRFTISRDNSKNTLYLQMNSLRAEDTAVYYCAKDPFGFDYWGQGTLVTVSS
On to B15, for which the “hIZCD40L-driven Human B Cell Proliferation EC50” value in experiment [2] was > 7 µM.

B16: BMS2h-494-3 (other)
VL: DIQMTQSPSSLSASVGDRVTITCRASQSIDEDLEWYQQKPGKAPRLLIYSSSWLQSGVPSRFSGSGSGTDFTLTISSLQPEDFATYFCQQYFQYPPTFGQGTKVEIKR
Regarding B16, the “hIZCD40L-driven Human B Cell Proliferation EC50” value in experiment [2] is > 7 µM.

B17: BMS2h-492 (other)
VL: DIQMTQSPSSLSASVGDRVTITCRASQAIELNLEWYQQKPGKAPKLLIYDASMLQSGVPSRFSGSGSGTDFTLTISSLQPEDFATYYCQQYDVYPPTFGQGTKVEIKR
B17: the “hIZCD40L-driven Human B Cell Proliferation EC50” value in experiment [2] was > 7 µM.

B18: BMS2h-494-2 (other)
VL: DIQMTQSPSSLSASVGDRVTITCRASQSIEEDLEWYQQKPGKAPRLLIYSSSWLQSGVPSRFSGSGSGTDFTLTISSLQPEDFATYYCQQYFQYPPTFGHGTKVEIKR
For B18, in experiment [2], the “hIZCD40L-driven Human B Cell Proliferation EC50” value was 4.8 µM.

B19: BMS2h-492-6 (other)
VL: DIQMTQSPSSLSASVGDRVTITCRASQAIESNLEWYQQKPGKAPKLLIYDASMLQSGVPSRFSGSGSGTDFTLTISSLQPEDFATYYCQQYDVYPPTFGQGTKVEIKR
As for B19, in experiment [2], the “hIZCD40L-driven Human B Cell Proliferation EC50” value worked out at 6.3 µM.

B20: BMS2h-494 (other)
VL: DIQMTQSPSSLSASVGDRVTITCRASQSIDEDLEWYQQKPGKAPRLLIYSSSWLQSGVPSRFSGSGSGTDFTLTISSLQPEDFATYYCQQYFQYPPTFGQGTKVEIKR
For the molecule B20, the “hIZCD40L-driven Human B Cell Proliferation EC50” value in experiment [2] is 6.1 µM.

B21: BMS2h-492-7 (other)
VL: DIQMTQSPSSLSASVGDRVTITCRASQAIEHNLEWYQQKPGKAPKLLIYDASMLQSGVPSRFSGSGSGTDFTLTISSLQPEDFATYYCQQYDAYPPTFGQGTKVEIKR
Consider B21, for which the “hIZCD40L-driven Human B Cell Proliferation EC50” value in experiment [2] is 1.9 µM.

B22: BMS2h-492-5 (other)
VL: DIQMNQSPSSLSASVGDRVSITCRASQAIEHNLEWYQQKPGKAPKLLIYDASMLQSGVPSRFSGSGSGTDFTLTISSLQPEDFATYYCQQYDAYPPTFGQGTKVEIKR
Turning to B22, the “hIZCD40L-driven Human B Cell Proliferation EC50” value in experiment [2] was 2.3 µM.

B23: BMS2h-775 (other)
VH: EVQLLESGGGLVQPGGSLRLSCAASGFTFPNYGMLWVRQAPGKGLEWVSSINSSGMETYYADSVKGRFTISRDNSKNTLYLQMNSLRAEDTAVYYCAKFFRLNDHNSVFGFDYWGQGTLVTVSS
In the case of B23, the “hIZCD40L-driven Human B Cell Proliferation EC50” value in experiment [2] is > 7 µM.

B24: BMS2h-774 (other)
VH: EVQLLESGGGLVQPGGSLRLSCAASGFTFREYDMGWVRQAPGKGLEWVSLISPPGRTTYYADSVKGRFTISRDNSKNTLYLQMNSLRAEDTAVYYCAKVVILGYTNRFDYWGQGTLVTVSS
Consider B24, for which the “hIZCD40L-driven Human B Cell Proliferation EC50” value in experiment [2] is > 7 µM.

B25: BMS2h-758-1 (other)
VH: EVQLLESGGGLVQPGGSLRLSCAASGFTFGDYGMNWVRQAPGKGLEWVSHISSNGRFTYYADSVKGRFTISRDNSKNMLYLRMNSLRAEDTAVYYCAETSGYYEYWGQGTLVTVSS
As to B25, the “hIZCD40L-driven Human B Cell Proliferation EC50” value in experiment [2] is > 7 µM.

B26: BMS2h-758-5 (other)
VH: EVQLLESGGGLVQPGGSLRLSCAASGFAFGDYGMNWVRQAPGKGLEWVSHISSNGRFTYYADSVKGRFTISRDNSKNTLYLQMNSLRAEDTAVYYCAETSGYFEYWGQGTLVTVSS
For the molecule B26, the “hIZCD40L-driven Human B Cell Proliferation EC50” value in experiment [2] is > 7 µM.

B27: BMS2h-758-2 (other)
VH: EVQLLESGGGLVQPGGSLRLSCAASGFTFGDYGMNWVRQAPGKGLEWVSHISSNGRFTYYADSVKGRFTISRDNSKNTLYLQMNSLRAEDTAVYYCAETSGYFEYWGQGTLVTVSS
B27: the “hIZCD40L-driven Human B Cell Proliferation EC50” value in experiment [2] was > 7 µM.

B28: BMS2h-758-3 (other)
VH: EVQLLESGGGLVQPGGSLRLSCAASGFTFGDYGMNWVRQAPGKGLEWVSHISSNGRFTYYADSVKGRFTISRDNSKNTLYLQMNSLRAEDTAVYYCAETSSYFEYWGQGTLVTVSS
As to B28, the “hIZCD40L-driven Human B Cell Proliferation EC50” value in experiment [2] was > 7 µM.

B29: BMS2h-758-4 (other)
VH: EVQLLESGGGLVQPGGSLRLSCAASGFTFGDYGMNWVRQAPGKGLEWVSHISSNGRFTYYADSVKGRFTISRDNSKNTLFLQMNSLRAEDTAVYYCAETSGYYEYWGHGTLVTVSS
Consider B29, for which the “hIZCD40L-driven Human B Cell Proliferation EC50” value in experiment [2] is > 7 µM.
